Legend:
[1] = target: T1, AlgW-K287A (Pseudomonas aeruginosa, UniProt Q9HVX1 30-389, K287A); test: cell-based or functional assay
T1 sequence: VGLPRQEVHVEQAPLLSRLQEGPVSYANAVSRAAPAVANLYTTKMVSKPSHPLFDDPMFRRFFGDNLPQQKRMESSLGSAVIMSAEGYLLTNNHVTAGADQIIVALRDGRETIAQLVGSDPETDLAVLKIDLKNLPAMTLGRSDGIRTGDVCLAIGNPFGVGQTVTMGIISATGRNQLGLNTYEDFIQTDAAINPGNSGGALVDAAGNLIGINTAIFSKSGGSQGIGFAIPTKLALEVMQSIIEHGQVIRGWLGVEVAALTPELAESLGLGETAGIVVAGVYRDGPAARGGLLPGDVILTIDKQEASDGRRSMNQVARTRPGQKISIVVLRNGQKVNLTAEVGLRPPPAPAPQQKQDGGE

[2] = target: T2, AlgW-E151A (Pseudomonas aeruginosa, UniProt Q9HVX1 30-389, E151A); test: cell-based or functional assay
T2 sequence: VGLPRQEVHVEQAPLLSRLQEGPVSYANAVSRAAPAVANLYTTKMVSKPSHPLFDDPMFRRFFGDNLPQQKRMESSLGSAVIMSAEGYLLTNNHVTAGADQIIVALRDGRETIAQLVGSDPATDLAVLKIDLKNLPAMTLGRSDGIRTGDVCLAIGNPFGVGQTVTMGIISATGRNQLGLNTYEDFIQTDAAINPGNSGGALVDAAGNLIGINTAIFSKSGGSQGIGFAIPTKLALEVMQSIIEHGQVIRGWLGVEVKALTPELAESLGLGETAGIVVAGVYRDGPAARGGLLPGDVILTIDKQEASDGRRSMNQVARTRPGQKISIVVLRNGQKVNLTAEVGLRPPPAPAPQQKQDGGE

[3] = target: T3, AlgW-R279A (Pseudomonas aeruginosa, UniProt Q9HVX1 30-389, R279A); test: cell-based or functional assay
T3 sequence: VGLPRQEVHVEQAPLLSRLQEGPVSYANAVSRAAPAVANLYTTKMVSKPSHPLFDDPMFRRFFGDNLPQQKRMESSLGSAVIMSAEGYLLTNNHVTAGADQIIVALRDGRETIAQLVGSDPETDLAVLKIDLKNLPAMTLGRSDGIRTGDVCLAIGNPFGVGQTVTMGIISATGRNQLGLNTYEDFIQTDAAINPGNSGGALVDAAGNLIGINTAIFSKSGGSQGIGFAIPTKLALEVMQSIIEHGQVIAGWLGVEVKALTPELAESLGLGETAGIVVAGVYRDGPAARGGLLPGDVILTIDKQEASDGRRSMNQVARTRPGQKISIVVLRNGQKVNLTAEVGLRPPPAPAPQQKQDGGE

[4] = target: T4, AlgW-L282A (Pseudomonas aeruginosa, UniProt Q9HVX1 30-389, L282A); test: cell-based or functional assay
T4 sequence: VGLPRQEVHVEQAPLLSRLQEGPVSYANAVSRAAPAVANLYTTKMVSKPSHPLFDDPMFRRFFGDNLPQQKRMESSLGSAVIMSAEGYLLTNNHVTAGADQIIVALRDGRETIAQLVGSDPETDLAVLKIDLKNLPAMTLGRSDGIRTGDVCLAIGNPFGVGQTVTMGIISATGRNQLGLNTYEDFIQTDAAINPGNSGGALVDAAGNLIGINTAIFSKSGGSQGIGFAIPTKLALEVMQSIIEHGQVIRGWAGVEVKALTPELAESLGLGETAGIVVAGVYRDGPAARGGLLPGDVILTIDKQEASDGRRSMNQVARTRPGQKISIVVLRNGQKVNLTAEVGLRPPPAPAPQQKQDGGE

[5] = target: T5, AlgW-E285A (Pseudomonas aeruginosa, UniProt Q9HVX1 30-389, E285A); test: cell-based or functional assay
T5 sequence: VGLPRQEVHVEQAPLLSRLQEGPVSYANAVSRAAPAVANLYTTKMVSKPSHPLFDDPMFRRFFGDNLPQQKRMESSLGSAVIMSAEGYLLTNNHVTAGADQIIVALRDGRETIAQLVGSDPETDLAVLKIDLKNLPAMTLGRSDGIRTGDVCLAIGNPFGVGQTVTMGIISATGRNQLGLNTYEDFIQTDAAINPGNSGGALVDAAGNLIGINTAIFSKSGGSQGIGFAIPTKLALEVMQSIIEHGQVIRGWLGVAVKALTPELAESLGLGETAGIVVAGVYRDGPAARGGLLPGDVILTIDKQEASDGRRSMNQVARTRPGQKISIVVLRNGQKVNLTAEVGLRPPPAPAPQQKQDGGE

[6] = target: T6, AlgWS227A (inactive mutant of the periplasmic soluble domain of AlgW, for crystallization) (Pseudomonas aeruginosa, UniProt Q9HVX1 52-389, S227A); test: crystal structure; protein mixed with peptide activator (tripeptide WVF or decapeptide …) prior to crystallization; hanging-drop vapor diffusion at 18°C; molecular replacement; conditions: both partners purified
T6 construct: AlgW of Pseudomonas aeruginosa, residues 52-389 (construct for crystallization), catalytic serine S227 changed to alanine; source: E. coli BL21(DE3), purified (Ni-NTA, Superdex-75 SEC)
T6 sequence: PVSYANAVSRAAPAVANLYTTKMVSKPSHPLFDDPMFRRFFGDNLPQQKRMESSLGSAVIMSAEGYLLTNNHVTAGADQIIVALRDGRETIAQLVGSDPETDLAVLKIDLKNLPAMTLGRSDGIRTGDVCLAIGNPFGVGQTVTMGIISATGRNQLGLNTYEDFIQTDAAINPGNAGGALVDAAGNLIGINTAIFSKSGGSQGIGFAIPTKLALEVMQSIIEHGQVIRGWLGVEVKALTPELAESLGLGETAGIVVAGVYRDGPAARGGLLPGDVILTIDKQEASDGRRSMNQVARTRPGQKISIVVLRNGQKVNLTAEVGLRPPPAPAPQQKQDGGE

B1: decapeptide SVRDELRWVF (MucE C-terminal tail) (peptide)
peptide: SVRDELRWVF
notes: C-terminal decapeptide of the periplasmic protein MucE of Pseudomonas aeruginosa; also called C-terminal decapeptide of MucE
B1 was tested, and the “half-maximal activation concentration of the peptide activator (cleavage of Abz-VLAG-pNA)” value (from here on “half-maximal activation concentration”) [1] was 6.53 μM, the “maximal cleavage activity of peptide-activated AlgW (Abz-VLAG-pNA)” value (“maximal cleavage activity” below) [1] was 49.4 μM min^−1 and the “half-maximal activation concentration” value [2] was 2.99 μM. For the same binder, the “half-maximal activation concentration” value [3] was 2.19 μM, the “half-maximal activation concentration” value [4] was 2.76 μM and the “maximal cleavage activity” value [4] was 13.2 μM min^−1. The “half-maximal activation concentration” value [5] was 3.84 μM, the “maximal cleavage activity” value [5] was 57.5 μM min^−1 and the binding result [6] was “binds”.

Source: paper PMC8545111, “Molecular Basis of the Versatile Regulatory Mechanism of HtrA-Type Protease AlgW from Pseudomonas aeruginosa” (mBio, 2021)
